Test results: patent publication US20210017278A1 (PROTHENA BIOSCIENCES, published 2021)

Legend:
Assay in all cases: ELISA, peptide coated on plate, HRP secondary, A490
[1] = biological target: T1, peptide HEDT (SEQ ID NO: 19)
T1 construct: Coated on ELISA plates; also called X1EDX2 peptide
T1 peptide: HEDT
From the text: (§1) ELISA plates were coated with indicated peptides, blocked, and assayed with either NEOD001 or 2A4, as indicated. After washing, appropriate horseradish peroxidase-conjugated secondary antibodies were applied. The plate was then washed and developed with o-phenylenediamene, and absorbance was read at 490 nm.
(§2) ELISA plates were coated with peptides having the amino acid sequence HEDT (SEQ ID NO: 19), AEDS (SEQ ID NO: 20), or HGDT (SEQ ID NO: 21), blocked, and assayed with either NEOD001 (an antibody with a light chain having the amino sequence set forth as SEQ ID NO: 13 and a heavy chain having the amino acid sequence set forth as SEQ ID NO: 14) or 2A4 (ATCC Accession Number 9662), as indicated. After washing, appropriate horseradish peroxidase-conjugated secondary antibodies were applied. The plate was then washed and developed with o-phenylenediamene, and absorbance was read at 490 nm.

[2] = biological target: T2, peptide AEDS (SEQ ID NO: 20)
T2 construct: Coated on ELISA plates; also called X1EDX2 peptide
T2 peptide: AEDS
From the text: as §1, §2

[3] = biological target: T3, peptide HGDT (SEQ ID NO: 21)
T3 construct: Coated on ELISA plates; also called X1GDX2 peptide
T3 peptide: HGDT
From the text: as §1, §2

Measured: binding result

B1: NEOD001 (antibody, human IgG1, kappa, V domains shown)
VH: EVQLVESGGGLVQPGGSLRLSCAASGFTFNTYAMYWIRQAPGKGLEWVARIRSKSNNYAIYYADSVKDRFTISRDDSKNSLYLQMNSLKTEDTAVYYCARPYSDSFAYWGQGTLVTVSS
VL: DVVMTQSPLSLPVTPGEPASISCRSSQSLVHSTGNTYLHWYLQKPGQSPQLLIYKVSNRFSGVPDRFSGSGSGTDFTLKISRVEAEDVGVYYCSQSTHVPFTFGGGTKVEIKR
notes: It shares the CDRs of murine antibody 2A4; also called humanized version of antibody 2A4
binds: [1] | [2] | [3]
